In patent US20060263334A1:

Tests used:
scTCR-CD4TM-hζ (human) = scTCR-CD4TM-hζ (human) (UniProt P01730); assay: flow cytometry, 293H cells transfected with scTCR-CD4TM-hζ. Reference bars: 293H 1.1, Control vector 1.4
[1] = target: MA scTCR (single chain Vα23.1Jα14.3-linker-Vβ8.3DβJβ1.2-Cβ2 fused through a thrombin-site linker to the murine CD3 ξ chain), displayed on transfected RBL or BWZ cells (human; mouse); assay: flow cytometry, 293H cells transfected with scTCR; bar marked **. Reference bars: 293H 1.1, Control vector 1.4
[2] = target: scTCR-AGD-CD4TM-hζ (human) (UniProt P01730); assay: flow cytometry, 293H cells transfected with scTCR-AGD-CD4TM-hζ; bar marked **. Reference bars: 293H 1.1, Control vector 1.4

Substance anti-TCR βF1 antibody has a Fold increase in MFI (scTCR-CD4TM-hζ (human)) of 2.1 fold, a Fold increase in MFI [1] of 4.4 fold and a Fold increase in MFI [2] of 6.5 fold.
